Reference: patent US20250154217A1 (ZONHON BIOPHARMA INSTITUTE, published 2025)
Substitutions are numbered along the chain they refer to. Names and notes keep the numbering of the source.

B1: IL-2 mutant G438 (ligand)
chain: APTSSSTRKTQLQLEHLLLDLQMILNGINNYKNPKLTRMLTFKFYMPWKATELKHLQCLEEELKPLEEVLNLAQSKNFHLRPRDLISNINVIVLELKGSETTFMCEYADETATIVEFLNRWITFAQSIISTLT
B2: IL-2 mutant G438P12 (ligand)
chain: B1 chain with L18M, L19S, W48R
B3: IL-2 mutant G438P6 (ligand)
chain: B1 chain with F42A, K43D
notes: also called GP6
B4: IL-2 mutant G496 (ligand)
chain: B1 chain with K43W, K54W, K64H, K97R
B5: IL-2 mutant G493 (ligand)
chain: B1 chain with K43W, K54W, K64H, K97E
B6: IL-2 mutant G438P2 (ligand)
chain: B1 chain with K35E, K43D
notes: also called GP2
B7: IL-2 mutant G438P14 (ligand)
chain: B1 chain with L18M, L19S, R38E, T41E
notes: also called GP14
B8: IL-2 mutant G498 (ligand)
chain: B1 chain with K43W, K54W, K64H, K97F
B9: IL-2 mutant G438P15 (ligand)
chain: B1 chain with L18M, L19S, R38E, T41E, Y45R, L72F
notes: also called GP15
B10: IL-2 mutant G438P17 (ligand)
chain: B1 chain with L18M, L19S, R81D, P82T, R83E, S87D
notes: also called GP17
B11: IL-2 mutant G438P9 (ligand)
chain: B1 chain with L18M, L19S, F42A
notes: also called GP9
B12: IL-2 mutant G438P8 (ligand)
chain: B1 chain with L72F, R81D
notes: also called GP8
B13: IL-2 mutant G438P1 (ligand)
chain: B1 chain with L18M, L19S
notes: also called GP1
B14: IL-2 mutant G438P7 (ligand)
chain: B1 chain with R38E, T41E
notes: also called GP7
B15: IL-2 mutant G438P16 (ligand)
chain: B1 chain with L18M, L19S, R38E, T41E, P82A, S87D
notes: also called GP16
B16: IL-2 mutant G438P3 (ligand)
chain: B1 chain with G27C, F78C
notes: also called GP3
B17: IL-2 mutant G438P10 (ligand)
chain: B1 chain with L18M, L19S, H79E, R81D
notes: also called GP10
B18: IL-2 mutant G438P19 (ligand)
chain: PTSSSTRKTQLQLEHLMSDLQMILNGINNYKNPKLTRMLTFKFYMPWKATELKHLQCLEEELKPLEEVLNLAQSKNFHLRPRDLISNINVIVLELKGSETTFMCEYADETATIVEFLNRWITFSQSSSQH
notes: Printed: lack of the first amino acid A, K8R/L18M/L19S/K48W/A125S, IISTLT from position 128 mutated to SSQH; also called GP19

Target: T1, IL-2Rβ(CD122) (UniProt P14784 27-239, limits assumed)
T1 construct: also called IL-2β
T1 sequence (looked up): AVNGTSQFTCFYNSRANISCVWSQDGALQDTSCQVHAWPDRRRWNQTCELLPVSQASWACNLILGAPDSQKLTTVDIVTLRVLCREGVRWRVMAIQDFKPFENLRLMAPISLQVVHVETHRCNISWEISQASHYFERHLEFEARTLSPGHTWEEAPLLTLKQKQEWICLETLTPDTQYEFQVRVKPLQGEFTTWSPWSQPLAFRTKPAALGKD
Experiment: BLI (Fortebio)
Description: (§1) The affinity between IL-2 mutants and their receptors was detected by Bio-Layer Interferometry (BLI).
(§2) Receptor solution: IL-2Rα(CD25), IL-2Rβ(CD122) and IL-2Rβ/γ receptor samples were diluted to 15-20 μg/mL with 1×Kinetics buffer, mixed and stored in a dark place.
(§3) Samples were added to the sample wells according to the protocol design, and 200 μL of reagent or sample was added to each well.

Binder | Kd [nM] | binding result
B1 | 15.3 | –
B2 | 7.29 | –
B3 | 52.3 | –
B4 | – | no binding
B5 | – | no binding
B6 | 18.3 | –
B7 | 42600 | –
B8 | – | no binding
B9 | 87.1 | –
B10 | 61 | –
B11 | 26.4 | –
B12 | 12 | –
B13 | 18.3 | –
B14 | 64.2 | –
B15 | 142 | –
B16 | 12.1 | –
B17 | 30.5 | –
B18 | 12.9 | –

Target: T2, IL-2Rβ/γ receptor (UniProt P14784 27-239; P31785 23-262, limits assumed)
T2 sequence (looked up) 1: T1 sequence (looked up)
T2 sequence (looked up) 2: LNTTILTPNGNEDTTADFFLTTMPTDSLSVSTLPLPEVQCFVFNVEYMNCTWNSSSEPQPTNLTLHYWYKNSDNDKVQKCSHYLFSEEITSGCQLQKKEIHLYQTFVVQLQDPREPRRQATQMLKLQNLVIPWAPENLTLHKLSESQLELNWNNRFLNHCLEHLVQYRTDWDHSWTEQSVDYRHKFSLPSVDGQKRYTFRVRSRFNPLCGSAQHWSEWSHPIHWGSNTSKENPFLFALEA
Experiment: BLI (Fortebio)
Description: as §1, §2, §3

Binder | Kd [nM]
B7 | 39.6
B9 | 136000
B12 | 32.7
B14 | 35.4

Target: T3, IL-2Rα(CD25) (UniProt P01589 22-213, limits assumed)
T3 construct: also called IL-2α
T3 sequence (looked up): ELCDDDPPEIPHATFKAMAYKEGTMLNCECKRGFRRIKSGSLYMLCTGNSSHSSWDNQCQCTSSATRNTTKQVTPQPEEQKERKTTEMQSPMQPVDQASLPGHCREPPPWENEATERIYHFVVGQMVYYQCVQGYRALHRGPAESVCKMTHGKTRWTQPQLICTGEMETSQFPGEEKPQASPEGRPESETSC
Experiment: BLI (Fortebio)
Description: as §1, §2, §3

Binder | Kd [nM] | binding result
B1 | 13.4 | –
B2 | 8.48 | –
B3 | 119 | –
B4 | – | no binding
B5 | – | no binding
B6 | 68.9 | –
B7 | – | no binding
B8 | – | no binding
B9 | 170 | –
B10 | 94.9 | –
B11 | 34.7 | –
B12 | 131 | –
B13 | 17.9 | –
B14 | 178000 | –
B15 | 353 | –
B16 | 26.4 | –
B17 | 36.1 | –
B18 | 38.6 | –
